Test results reported in publication PMC4932183.

How the values were obtained:
[1] = molecular target: T1, pro-domain of activin A, N-terminal His6-tagged, released from engineered pro-activin A by HRV 3C protease (human); assay: BLI; His6-tagged pro-activin A complex immobilised through the pro-domain on anti-penta-HIS biosensors, dipped into buffer containing 100 nM FST-288 for 600 s; dissociation of the mature domain; 30 °C
T1 sequence (P08476 whole entry, looked up): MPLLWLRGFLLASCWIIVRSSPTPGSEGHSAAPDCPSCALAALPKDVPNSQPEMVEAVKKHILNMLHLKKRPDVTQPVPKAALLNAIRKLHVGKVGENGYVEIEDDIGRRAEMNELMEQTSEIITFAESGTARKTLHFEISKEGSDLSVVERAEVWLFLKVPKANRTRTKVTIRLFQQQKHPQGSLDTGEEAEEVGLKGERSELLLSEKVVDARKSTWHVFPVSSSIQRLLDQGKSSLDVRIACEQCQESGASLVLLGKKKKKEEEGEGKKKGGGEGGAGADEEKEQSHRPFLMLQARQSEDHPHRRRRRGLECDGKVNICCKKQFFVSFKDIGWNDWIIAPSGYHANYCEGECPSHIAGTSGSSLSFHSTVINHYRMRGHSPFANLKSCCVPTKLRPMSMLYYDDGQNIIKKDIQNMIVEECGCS

[2] = molecular target: T1, pro-domain of activin A, N-terminal His6-tagged, released from engineered pro-activin A by HRV 3C protease (human); assay: BLI; reverse phase purified His6-tagged pro-domain immobilised at 25 μg/ml on anti-penta-HIS biosensors; mature activin A in solution; 300 s association, 300 s dissociation; Octet RED96, 30 °C
[3] = molecular target: T1, pro-domain of activin A, N-terminal His6-tagged, released from engineered pro-activin A by HRV 3C protease (human); assay: BLI; pro-activin A complex immobilised at 50 μg/ml on anti-penta-HIS biosensors, mature domain removed with 16 μM FST-288, then mature activin A in solution; 600 s association, 600 s dissociation; 30 °C
[4] = molecular target: T1, pro-domain of activin A, N-terminal His6-tagged, released from engineered pro-activin A by HRV 3C protease (human); assay: BLI; His6-tagged pro-activin A complex immobilised through the pro-domain on anti-penta-HIS biosensors, dipped into blank buffer for 600 s; dissociation of the mature domain; 30 °C

dissociation rate with 100 nM FST-288 [1]: 0.00445 s⁻¹ | Kd [2]: 5 nM | Kd [3]: 2.3 nM | koff [4]: 0.00299 s⁻¹
B1: mature activin A (disulfide-linked dimer of the mature domain of inhibin βA) (ligand)
chain: GLECDGKVNICCKKQFFVSFKDIGWNDWIIAPSGYHANYCEGECPSHIAGTSGSSLSFHSTVINHYRMRGHSPFANLKSCCVPTKLRPMSMLYYDDGQNIIKKDIQNMIVEECGCS
